According to patent US20200325220A1 (INSTITUTE FOR RESEARCH IN BIOMEDICINE, published 2020):

Experiments:
[1] = target: T1, recombinant human GM-CSF (human, UniProt P04141 18-144); experiment: SPR, GM-CSF on the chip, antibody then collagen
[2] = target: T1, recombinant human GM-CSF; experiment: SPR, antibody captured on protein A, GM-CSF then collagen
[3] = target: T2, type I recombinant human collagen (human, UniProt P02452 162-1218; P08123 80-1119); experiment: as above
[4] = target: T1, recombinant human GM-CSF; experiment: SPR, GM-CSF on the chip
[5] = target: T2, type I recombinant human collagen; experiment: SPR, GM-CSF on the chip, antibody then collagen
[6] = target: T1, recombinant human GM-CSF; experiment: ELISA, plate coated with GM-CSF

T1 sequence (P04141 18-144 limits assumed): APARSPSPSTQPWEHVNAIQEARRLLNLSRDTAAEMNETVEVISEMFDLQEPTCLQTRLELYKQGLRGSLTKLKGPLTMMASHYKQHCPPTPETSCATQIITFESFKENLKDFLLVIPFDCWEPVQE
T2 sequence (P02452 162-1218 limits assumed, chain 1 of 2): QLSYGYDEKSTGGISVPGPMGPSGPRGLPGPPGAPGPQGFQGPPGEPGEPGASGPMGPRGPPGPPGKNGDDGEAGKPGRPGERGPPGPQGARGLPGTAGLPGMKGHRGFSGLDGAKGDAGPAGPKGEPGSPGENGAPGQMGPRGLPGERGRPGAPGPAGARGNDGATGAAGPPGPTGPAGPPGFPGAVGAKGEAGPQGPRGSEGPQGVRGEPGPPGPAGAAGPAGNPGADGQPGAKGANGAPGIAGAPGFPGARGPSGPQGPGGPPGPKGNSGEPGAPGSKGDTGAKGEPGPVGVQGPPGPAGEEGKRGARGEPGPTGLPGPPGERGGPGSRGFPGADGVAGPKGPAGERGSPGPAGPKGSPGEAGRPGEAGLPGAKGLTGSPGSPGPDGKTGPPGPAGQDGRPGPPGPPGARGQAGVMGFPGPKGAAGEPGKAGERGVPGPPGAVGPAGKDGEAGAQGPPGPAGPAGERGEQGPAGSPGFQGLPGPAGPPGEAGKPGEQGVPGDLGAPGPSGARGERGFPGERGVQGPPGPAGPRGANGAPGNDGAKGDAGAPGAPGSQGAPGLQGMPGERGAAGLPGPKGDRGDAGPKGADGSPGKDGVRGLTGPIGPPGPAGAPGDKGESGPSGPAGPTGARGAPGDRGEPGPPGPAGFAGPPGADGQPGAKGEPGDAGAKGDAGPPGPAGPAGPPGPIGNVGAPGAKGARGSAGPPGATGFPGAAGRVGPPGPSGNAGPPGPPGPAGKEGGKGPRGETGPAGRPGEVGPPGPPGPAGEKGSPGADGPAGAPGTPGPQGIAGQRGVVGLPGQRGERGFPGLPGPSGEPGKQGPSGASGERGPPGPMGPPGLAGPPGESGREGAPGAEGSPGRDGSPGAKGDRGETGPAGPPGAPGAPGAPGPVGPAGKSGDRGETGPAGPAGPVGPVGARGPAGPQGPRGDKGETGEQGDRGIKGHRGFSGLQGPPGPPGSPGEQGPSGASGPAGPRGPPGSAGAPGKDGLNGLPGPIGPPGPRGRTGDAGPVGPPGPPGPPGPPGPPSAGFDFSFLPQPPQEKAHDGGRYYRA
T2 sequence (P08123 80-1119 limits assumed, chain 2 of 2): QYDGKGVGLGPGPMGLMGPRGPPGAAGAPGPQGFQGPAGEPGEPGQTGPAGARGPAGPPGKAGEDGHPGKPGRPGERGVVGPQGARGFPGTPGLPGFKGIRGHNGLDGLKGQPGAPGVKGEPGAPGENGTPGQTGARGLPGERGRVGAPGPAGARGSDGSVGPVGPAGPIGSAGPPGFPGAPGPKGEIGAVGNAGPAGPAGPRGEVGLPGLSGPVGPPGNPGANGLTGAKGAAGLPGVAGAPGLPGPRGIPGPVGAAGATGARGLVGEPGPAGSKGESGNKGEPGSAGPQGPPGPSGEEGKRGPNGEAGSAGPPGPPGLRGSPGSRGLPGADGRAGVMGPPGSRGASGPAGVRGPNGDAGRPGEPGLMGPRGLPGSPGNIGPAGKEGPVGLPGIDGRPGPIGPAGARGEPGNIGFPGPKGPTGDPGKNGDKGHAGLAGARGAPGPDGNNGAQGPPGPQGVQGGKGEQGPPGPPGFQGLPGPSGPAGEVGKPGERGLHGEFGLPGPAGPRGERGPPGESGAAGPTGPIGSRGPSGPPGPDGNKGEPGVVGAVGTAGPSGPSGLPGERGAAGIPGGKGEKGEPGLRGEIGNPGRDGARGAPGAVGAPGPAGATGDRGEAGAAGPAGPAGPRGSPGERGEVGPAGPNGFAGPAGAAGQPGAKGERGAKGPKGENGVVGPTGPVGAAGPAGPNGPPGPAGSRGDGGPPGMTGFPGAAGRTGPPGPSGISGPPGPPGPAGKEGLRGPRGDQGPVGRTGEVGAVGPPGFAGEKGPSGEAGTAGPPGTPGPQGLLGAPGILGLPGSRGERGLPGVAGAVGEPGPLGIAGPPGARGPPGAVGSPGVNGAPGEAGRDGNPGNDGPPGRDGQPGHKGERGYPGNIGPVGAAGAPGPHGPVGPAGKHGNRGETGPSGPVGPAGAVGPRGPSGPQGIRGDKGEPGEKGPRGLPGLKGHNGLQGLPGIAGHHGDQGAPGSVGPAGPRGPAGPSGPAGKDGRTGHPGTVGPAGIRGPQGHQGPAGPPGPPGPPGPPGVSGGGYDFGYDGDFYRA

B1: MGD^UCA (antibody, human IgG1, kappa)
heavy: not shown
light: AIRMTQSPSSFSASTGDRVTITCRASQGISSYLAWYQQKPGKAPKLLIYAASTLQSGVPSRFSGSGSGTDFTLTISCLQSEDFATYYCQQYYSYPPDFGQGTRLEIKRTVAAPSVFIFPPSDEQLKSGTASVVCLLNNFYPREAKVQWKVDNALQSGNSQESVTEQDSKDSTYSLSSTLTLSKADYEKHKVYACEVTHQGLSSPVTKSFNRGEC
notes: also called collagen-specific MGD^UCA antibody
- binding result [1]: no binding (tested: antibody 10 nM)

B2: FI174 (antibody, V domains shown)
VH: QVQLVQSGAEVRKPGSSVKVSCKTSGGIIRKYALSWVRQAPGQGLEWMGGIIAIFGTTNYAQKFQGRVTINADESTSTVYLELSSLTSEDTAIYYCAGSATYYESRFDYWGQGTLVTVSS
VL: EIVLTQSPGTLSLSPGARATLSCRASQSVSSSSLAWYQQKPGQAPRLLIYDASSRATGIPDRFSGSGSGTDFTLTISRLEPEDFAVYYCHQYGDSRKTFGQGTKVEIKR
notes: also called F1174; FI74
- binding result [1]: no binding (tested: antibody 10 nM)

B3: TT107 (antibody, V domains shown)
VH: QVQLIQSGGGLVKPGGSLRLSCAASGFTFSDYYMSWIRQVPGKGLEWISVISATTGYTDYADSVKGRFTISRDNAKNSVFLQMNSLRVDDMAVYYCAREVLGTAWFDYWGQGTLVTISS
VL: EIVLTQSPGTLSLSPGERATLSCRASQSVTSNYLAWYQQKPGQAPRLLIYGVSRRATGIPDRFSGSGSGTDFALTISRLEPEDFAVYYCQQYRSSPRTFGPGTKVEFKR
notes: also called TT-specific monoclonal antibody
- binding result [2]: no binding (tested: GM-CSF 50 nM)
- binding result [3]: no binding (tested: collagen 50 nM)

B4: C4 (bispecific antibody, human IgG1, kappa)
heavy: not shown
light: EIVLTQSPGTLSLSPGETAILSCRASQSVSSSLLAWYQQKPGQAPRLLIYGASNRATGIRGRFSGSGSGTDFTLTISRLEPEDFVLYYCQHYGSRVTFGQGTKLEIKRTVAAPSVFIFPPSDEQLKSGTASVVCLLNNFYPREAKVQWKVDNALQSGNSQESVTEQDSKDSTYSLSSTLTLSKADYEKHKVYACEVTHQGLSSPVTKSFNRGEC
notes: also called construct C4; bispecific construct C4
- binding result [4]: binds

B5: GCE536 (antibody, human IgG1, kappa)
heavy: not shown
light: B4 light
notes: also called anti-GM-CSF antibody; scaffold antibody
- binding result [4]: binds
- binding result [5]: no binding (tested: collagen 50 nM)

B6: C5b (antibody, human IgG1, kappa)
heavy: not shown
light: B4 light
notes: also called construct C5b
- binding result [6]: binds

B7: C6b (antibody, human IgG1, kappa)
heavy: not shown
light: B4 light
notes: also called construct C6b
- binding result [6]: binds

B8: C5 (antibody, human IgG1, kappa)
heavy: not shown
light: B4 light
notes: also called construct C5
- binding result [4]: binds
